From article PMC11783328 come the findings set out here.

Assay [1] deals with 12A12 germline (gl-12A12). The experiment in a line: SPR. The conditions noted are these: antibody dilution series, colour key 0.98-1000 nM; KD1 fitted by bivalent modeling; parent: ND.
The target of another assay is 3BNC60 mature. Description: SPR. The conditions noted are these: antibody dilution series, colour key 0.98-1000 nM; KD1 fitted by bivalent modeling.
For assay [2], the target named is PGV19 germline (gl-PGV19). The experiment in a line: SPR. As to conditions: antibody dilution series, colour key 0.98-1000 nM; KD1 fitted by bivalent modeling.
Assay [3] deals with VRC01 germline (gl-VRC01). Description: SPR. The conditions noted are these: antibody dilution series, colour key 0.98-1000 nM; KD1 fitted by bivalent modeling.
The target of assay [4] is gl-3BNC60 IgG (inferred germline precursor of 3BNC60). Description: SPR. The conditions noted are these: antibody dilution series, colour key 0.98-1000 nM; KD1 fitted by bivalent modeling; parent: ND.
The target in assay [5] is BG505 SOSIP.v4.1 GT1.1 trimer (BG505 SOSIP germline trimer 1.1) (HIV-1 (isolate BG505)) (UniProt Q2N0S6). The experiment in a line: SPR; Biacore 3000; His-tagged GT1 and GT1.1 trimers captured in parallel flow cells, IgG injected from 1 μM in two- or four-fold dilutions; association 300 s, dissociation 600 s, 50 uL/min; bivalent model. A general note: Surface plasmon resonance follows binding to a sensor surface in real time, without labels.

Sequence of gl-3BNC60 IgG (inferred germline precursor of 3BNC60) (antibody) (VH): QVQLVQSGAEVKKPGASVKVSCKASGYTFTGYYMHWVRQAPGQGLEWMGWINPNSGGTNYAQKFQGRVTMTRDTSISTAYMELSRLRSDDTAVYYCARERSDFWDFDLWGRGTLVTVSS
Sequence of gl-3BNC60 IgG (inferred germline precursor of 3BNC60) (antibody) (VL): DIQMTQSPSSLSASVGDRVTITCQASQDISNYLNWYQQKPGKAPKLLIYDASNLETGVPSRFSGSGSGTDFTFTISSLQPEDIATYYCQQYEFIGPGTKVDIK

As for “BG505 SOSIP.v4.1-GT1 trimer (from UniProt Q2N0S6) E275K”, the Kd in assay [1] was 200 nM; with 3BNC60 mature it was less than 0.1 nM; in assay [2] it was 24 nM; in assay [3], 360 nM; in assay [4] it was 780 nM.

“gl-3BNC60 IgG (inferred germline precursor of 3BNC60) (antibody)” showed a KD1 (bivalent model) in assay [5] of 780 nM.
